Residue numbers refer to the chain shown, from its start.
T1: rhesus monkey iRhom2 (Macaca mulatta, UniProt F6Y4X6)
T1 construct: pMSCV-rhesus-iR2-FL-WT-T7 encoding rhesus monkey iRhom2 full length wild type; expressed in transfected cells; host or cells: immortalized iRhom1/2-/- DKO mouse embryonic fibroblasts, pMSCV retroviral infection
T1 sequence (F6Y4X6 1-827): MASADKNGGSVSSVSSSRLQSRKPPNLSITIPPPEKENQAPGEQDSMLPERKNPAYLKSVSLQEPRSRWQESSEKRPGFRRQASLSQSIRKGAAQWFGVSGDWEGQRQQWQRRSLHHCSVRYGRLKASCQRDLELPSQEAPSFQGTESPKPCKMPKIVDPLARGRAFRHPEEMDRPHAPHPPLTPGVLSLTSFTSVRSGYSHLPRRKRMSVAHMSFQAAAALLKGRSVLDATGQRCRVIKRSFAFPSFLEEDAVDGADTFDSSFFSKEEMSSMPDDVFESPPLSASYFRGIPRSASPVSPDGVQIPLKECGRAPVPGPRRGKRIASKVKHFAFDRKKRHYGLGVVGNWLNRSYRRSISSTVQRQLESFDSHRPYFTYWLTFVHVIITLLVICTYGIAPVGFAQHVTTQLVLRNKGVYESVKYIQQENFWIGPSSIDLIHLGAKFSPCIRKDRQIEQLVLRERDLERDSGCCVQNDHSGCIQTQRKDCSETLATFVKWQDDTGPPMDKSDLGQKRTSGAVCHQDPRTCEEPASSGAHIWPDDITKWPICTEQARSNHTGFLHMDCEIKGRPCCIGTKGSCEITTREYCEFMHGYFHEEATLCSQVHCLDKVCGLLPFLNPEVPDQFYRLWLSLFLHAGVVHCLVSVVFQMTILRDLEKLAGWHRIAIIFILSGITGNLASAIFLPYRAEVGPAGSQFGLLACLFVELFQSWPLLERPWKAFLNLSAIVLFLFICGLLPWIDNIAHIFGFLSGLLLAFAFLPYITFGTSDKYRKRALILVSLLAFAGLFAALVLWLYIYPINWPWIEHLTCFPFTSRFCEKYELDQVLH

B1: 16-B-03: humanized antibody binding human iRhom2; HCVD SEQ ID NO 1, LCVD SEQ ID NO 5 (antibody, V domains shown)
VH: QVTLRESGPALVKPTQTLTLTCTFSGFSLSTFALGVGWIRQPPGKALEWLAHIWWDDDKYYNPALKSRLTISKDTSKNQVVLTITNMDPVDTATYYCARITTYYYGMDYWGQGTLVTVSS
VL: EIVMTQSPDFQSVTPKEKVTITCRASQSIGNHLHWYQQKPDASPKLLIKYASQSISGVPSRFSGSGSGTDFTLTINSLEAEDAATYFCQQSYQWPLTFGQGTKLEIK
modifications: antibody sequences
B2: 16-B-07: humanized antibody binding human iRhom2; HCVD SEQ ID NO 17, LCVD SEQ ID NO 21 (antibody, V domains shown)
VH: B1 VH with D57E
VL: B1 VL
modifications: antibody sequences
B3: 16-B-05: humanized antibody binding human iRhom2; HCVD SEQ ID NO 9, LCVD SEQ ID NO 13 (antibody, V domains shown)
VH: B1 VH with D57E
VL: B1 VL with Q93N
modifications: antibody sequences
B4: 23-B-04: humanized antibody binding human iRhom2; HCVD SEQ ID NO 25, LCVD SEQ ID NO 29 (antibody, V domains shown)
VH: QVTLRESGPALVKPTQTLTLTCTFSGFSLSTFGMGVGWIRQPPGKALEWLAHIWWDDEKYYNSALKSRLTISKDTSKNQVVLTITNMDPVDTATYYCARISNYGSNYWYFNVWGQGTLVTVSS
VL: AIQLTQSPSSLSASVGDRVTITCRASSSVSYMYWYQQKPGKAPKVLIYDTSNLASGVPSRFSGSGSGTDYTLTISSLQPEDFATYYCQQWNAYPLTFGQGTKLEIK
modifications: antibody sequences
B5: 42-B-04: humanized antibody binding human iRhom2; HCVD SEQ ID NO 41, LCVD SEQ ID NO 45 (antibody, V domains shown)
VH: B4 VH with M34R, S101Q, N111D
VL: B4 VL with S28R, V29I, Y33F
modifications: antibody sequences
B6: 42-B-02: humanized antibody binding human iRhom2; HCVD SEQ ID NO 33, LCVD SEQ ID NO 37 (antibody, V domains shown)
VH: B4 VH with M34R, S101Q, N111D
VL: B4 VL with S28R, V29I, Y33F, A92S
modifications: antibody sequences

biological target: T1, rhesus monkey iRhom2; test: FACS cross-reactivity on MEF-DKO-Rhesus-iR2-FL-WT-T7 cells; type: binding; details: antibody at 3 μg/ml
Excerpt: Next, iRhom1/2−/− DKO MEFs stably expressing a tagged form of rhesus monkey, cynomolgus monkey, dog or rabbit iRhom2 were generated in order to determine cross-reactivity of the antibodies of the invention with the respective orthologue of iRhom2. iRhom1/2−/− DKO MEFs stably expressing a tagged form of rhesus monkey, cynomolgus monkey, dog or rabbit iRhom1 were generated to confirm specificity for iRhom2 versus iRhom1 of these species.
In brief, on day 1, Phoenix-ECO cells (American Type Culture Collection, USA) were seeded on 6-well tissue culture plates (Greiner, Germany) in standard growth medium at 8×10^5 cells per well and kept overnight at 37° C., 5% CO2. On day 2, the medium was replaced by fresh medium supplemented with chloroquine (Sigma-Aldrich, USA) at a final concentration of 25 μM. Applying the calcium phosphate method, cells were transfected with 2 μg/ml of pMSCV (Clontech, USA) empty vector, pMSCV-rhesus-iR2-FL-WT-T7 encoding rhesus monkey iRhom2 full length wild type C-terminally tagged with 3 consecutive copies of the T7 epitope, pMSCV-cyno-iR2-FL-WT-T7 encoding cynomolgus monkey iRhom2 full length wild type C-terminally tagged with 3 consecutive copies of the T7 epitope, pMSCV-dog-iR2-FL-WT-T7 encoding dog iRhom2 full length wild type C-terminally tagged with 3 consecutive copies of the T7 epitope or pMSCV-rabbit-iR2-FL-WT-T7 encoding rabbit iRhom2 full length wild type C-terminally tagged with 3 consecutive copies of the T7 epitope, respectively, and were kept at 37° C., 5% CO2. After 7 hours, the transfections were stopped by replacing cell supernatants with standard growth medium lacking chloroquine, and cells were incubated at 37° C., 5% CO2 to allow virus production overnight. In parallel, immortalized iRhom1/2−/− DKO MEFs as target cells for retroviral infection were seeded on 6-well tissue culture plates (Greiner, Germany) in standard growth medium at 1×10^5 cells per well and were also kept overnight at 37° C., 5% CO2. On day 3, the supernatants of Phoenix-ECO cells releasing pMSCV, pMSCV-rhesus-iR2-FL-WT-T7, pMSCV-cyno-iR2-FL-WT-T7, pMSCV-dog-iR2-FL-WT-T7 or pMSCV-rabbit-iR2-FL-WT-T7 ecotrophic virus, respectively were collected, filtered with 0.45 μm CA filters, and supplemented with 4 μg/ml of polybrene (Sigma-Aldrich, USA). Upon removal of medium from the immortalized iRhom1/2−/− DKO MEFs, the virus containing supernatants were added to the target cells for 4 hours at 37° C., 5% CO2 for first infection. Simultaneously, Phoenix-ECO cells were re-incubated with fresh medium, which, after another 4 hours, was filtered and used for the second infection of the respective target cell populations, again in the presence of 4 μg/ml of polybrene. Likewise, a third, but overnight infection cycle was performed. On day 4, virus containing cell supernatants were replaced by fresh standard growth medium. From day 5 onwards, cells were grown in the presence of 2 mg/ml of geneticin (G418, Thermo Fisher Scientific, USA) for the selection of immortalized MEF-DKO-EV control cells stably infected with pMSCV empty vector, pMSCV-rhesus-iR2-FL-WT-T7 cells stably expressing rhesus monkey iRhom2 full length wild type C-terminally tagged with 3 consecutive copies of the T7 epitope, pMSCV-cyno-iR2-FL-WT-T7 cells stably expressing cynomolgus monkey iRhom2 full length wild type C-terminally tagged with 3 consecutive copies of the T7 epitope, pMSCV-dog-iR2-FL-WT-T7 cells stably expressing dog iRhom2 full length wild type C-terminally tagged with 3 consecutive copies of the T7 epitope or pMSCV-rabbit-iR2-FL-WT-T7 cells stably expressing rabbit iRhom2 full length wild type C-terminally tagged with 3 consecutive copies of the T7 epitope, respectively. Upon propagation, cells were stocked for future usage. In parallel, iRhom1/2−/− DKO MEFs stably expressing a tagged form of rhesus monkey, cynomolgus monkey, dog or rabbit iRhom1 were generated in an analogous manner. […]

Molecule	binding to rhesus monkey iRhom2 on MEF-DKO-Rhesus-iR2-FL-WT-T7 cells
B1	Strong binding
B2	recognize rhesus monkey iRhom2
B3	recognize rhesus monkey iRhom2
B4	recognize rhesus monkey iRhom2
B5	recognize rhesus monkey iRhom2
B6	recognize rhesus monkey iRhom2

From patent US12404345B2, “Humanized antibodies against iRHOM2” (SCIRHOM GMBH, priority 2021, dated 2025)
